Measurements: paper PMC8897274 (Structure (London, England : 1993), 2021)

T1: PCNA1 subunit of S. solfataricus PCNA (S. solfataricus, UniProt P57766 1-249)
T1 sequence: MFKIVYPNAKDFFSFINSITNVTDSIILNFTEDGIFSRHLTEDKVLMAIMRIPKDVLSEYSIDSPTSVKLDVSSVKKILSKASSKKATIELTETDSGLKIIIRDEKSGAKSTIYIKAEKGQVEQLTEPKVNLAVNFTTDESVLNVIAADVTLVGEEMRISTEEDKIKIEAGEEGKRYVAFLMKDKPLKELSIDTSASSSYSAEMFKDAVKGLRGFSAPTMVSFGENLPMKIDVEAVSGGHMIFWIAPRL

T2: PCNA_(1–2-3) heterotrimer of S. solfataricus (S. solfataricus, UniProt P57766 1-249; Q97Z84 1-245; P57765 1-244)
T2 sequence 1: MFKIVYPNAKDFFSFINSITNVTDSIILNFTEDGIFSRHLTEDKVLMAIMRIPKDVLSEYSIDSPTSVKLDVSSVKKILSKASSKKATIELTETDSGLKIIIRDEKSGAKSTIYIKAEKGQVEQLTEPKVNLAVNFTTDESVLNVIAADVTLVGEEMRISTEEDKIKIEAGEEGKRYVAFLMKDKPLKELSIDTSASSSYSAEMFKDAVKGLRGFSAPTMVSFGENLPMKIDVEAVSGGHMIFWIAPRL
T2 sequence 2: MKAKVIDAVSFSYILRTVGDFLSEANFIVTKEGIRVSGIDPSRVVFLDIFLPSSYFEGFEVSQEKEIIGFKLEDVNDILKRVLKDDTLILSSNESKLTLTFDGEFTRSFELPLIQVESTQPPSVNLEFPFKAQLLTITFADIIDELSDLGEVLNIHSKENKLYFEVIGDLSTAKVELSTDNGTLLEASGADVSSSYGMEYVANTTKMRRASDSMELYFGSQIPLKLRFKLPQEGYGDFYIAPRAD
T2 sequence 3: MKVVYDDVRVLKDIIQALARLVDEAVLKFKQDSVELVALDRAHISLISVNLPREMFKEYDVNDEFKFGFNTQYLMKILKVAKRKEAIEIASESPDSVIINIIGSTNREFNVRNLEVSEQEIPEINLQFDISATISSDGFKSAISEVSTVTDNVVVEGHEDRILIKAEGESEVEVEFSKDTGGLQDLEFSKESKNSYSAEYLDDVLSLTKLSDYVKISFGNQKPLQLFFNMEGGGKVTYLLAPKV

T3: PCNA heterotrimer containing PCNA2 S42C (S. solfataricus, UniProt P57766 1-249; Q97Z84 1-245; P57765 1-244, S42C)
T3 sequence 1: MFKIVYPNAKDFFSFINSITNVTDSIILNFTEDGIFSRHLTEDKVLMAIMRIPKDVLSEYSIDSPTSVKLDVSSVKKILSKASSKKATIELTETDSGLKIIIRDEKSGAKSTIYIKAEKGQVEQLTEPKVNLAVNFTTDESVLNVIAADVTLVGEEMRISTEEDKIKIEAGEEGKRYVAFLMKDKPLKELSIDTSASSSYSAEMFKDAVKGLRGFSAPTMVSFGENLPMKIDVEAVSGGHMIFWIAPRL
T3 sequence 2: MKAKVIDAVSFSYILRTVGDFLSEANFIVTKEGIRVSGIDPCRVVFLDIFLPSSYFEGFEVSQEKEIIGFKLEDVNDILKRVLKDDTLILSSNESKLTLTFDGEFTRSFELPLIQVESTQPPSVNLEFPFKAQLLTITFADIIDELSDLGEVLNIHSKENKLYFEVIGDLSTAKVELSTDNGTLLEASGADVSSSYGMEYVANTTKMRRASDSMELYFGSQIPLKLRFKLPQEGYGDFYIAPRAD
T3 sequence 3: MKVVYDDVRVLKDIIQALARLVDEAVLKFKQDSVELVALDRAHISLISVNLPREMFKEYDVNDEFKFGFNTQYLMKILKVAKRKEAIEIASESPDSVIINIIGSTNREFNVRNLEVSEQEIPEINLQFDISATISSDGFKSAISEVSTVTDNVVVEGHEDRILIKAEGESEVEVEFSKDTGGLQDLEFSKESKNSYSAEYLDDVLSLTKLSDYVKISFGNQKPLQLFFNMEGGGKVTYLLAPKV

B1: DNA ligase from S. solfataricus (Lig), wild type (enzyme)
chain: MEFKVIAEYFDKLEKISSRLQLTALLADLLSKSDKTIIDKVVYIIQGKLWPDFLGYPELGIGEKFLIKAISIATNTDENSVENLYKTIGDLGEVARRLKSKQQSTGILGFLGTTSKESLTVDEVYSTLSKVALTTGEGSRDLKIRLLAGLLKKADPLEAKFLVRFVEGRLRVGIGDATVLDAMAIAFGGGQSASEIIERAYNLRADLGNIAKIIVEKGIEALKTLKPQVGIPIRPMLAERLSNPEEILKKMGGNAIVDYKYDGERAQIHKKEDKIFIFSRRLENITSQYPDVVDYVSKYIEGKEFIIEGEIVAIDPESGEMRPFQELMHRKRKSDIYEAIKEYPVNVFLFDLMYYEDVDYTTKPLEARRKLLESIVKPNDYVKIAHHIQANNVEDLKSFFYRAISEGGEGVMVKAIGKDAIYQAGARGWLWIKLKRDYQSEMADTVDLVVVGGFYGKGKRGGKISSLLMAAYNPKTDSFESVCKVASGFSDEQLDELQKKLMEIKRDVKHPRVNSKMEPDIWVEPVYVAEIIGSEITISPLHTCCQDVVEKDAGLSIRFPRFIRWRDDKSPEDATTTDEILEMYNKQPKKKIESPAVDESV

Tests used:
[1] = target: T1, PCNA1 subunit of S. solfataricus PCNA; test: cryo-EM structure
[2] = target: B1; test: negative stain electron microscopy
[3] = target: T2, PCNA_(1–2-3) heterotrimer of S. …; test: SEC-MALS
[4] = target: T3, PCNA heterotrimer containing PCNA2 S42C; test: cross-linking
[5] = target: T2, PCNA_(1–2-3) heterotrimer of S. …; test: SEC

binding result [4] | binding result [5] | Binder | also measured
– | – | PCNA2 subunit of S. solfataricus PCNA (natural protein) MKAKVIDAVSFSYILRTVGDFLSEANFIVTKEGIRVSGIDPSRVVFLDIFLPSSYFEGFEVSQEKEIIGFKLEDVNDILKRVLKDDTLILSSNESKLTLTFDGEFTRSFELPLIQVESTQPPSVNLEFPFKAQLLTITFADIIDELSDLGEVLNIHSKENKLYFEVIGDLSTAKVELSTDNGTLLEASGADVSSSYGMEYVANTTKMRRASDSMELYFGSQIPLKLRFKLPQEGYGDFYIAPRAD | binding result [1]: binds; binding result [2]: binds
– | – | B1 | stoichiometry N [3]: 1
binds | – | Lig 337 Y-C mutant (enzyme, S. solfataricus) MEFKVIAEYFDKLEKISSRLQLTALLADLLSKSDKTIIDKVVYIIQGKLWPDFLGYPELGIGEKFLIKAISIATNTDENSVENLYKTIGDLGEVARRLKSKQQSTGILGFLGTTSKESLTVDEVYSTLSKVALTTGEGSRDLKIRLLAGLLKKADPLEAKFLVRFVEGRLRVGIGDATVLDAMAIAFGGGQSASEIIERAYNLRADLGNIAKIIVEKGIEALKTLKPQVGIPIRPMLAERLSNPEEILKKMGGNAIVDYKYDGERAQIHKKEDKIFIFSRRLENITSQYPDVVDYVSKYIEGKEFIIEGEIVAIDPESGEMRPFQELMHRKRKSDICEAIKEYPVNVFLFDLMYYEDVDYTTKPLEARRKLLESIVKPNDYVKIAHHIQANNVEDLKSFFYRAISEGGEGVMVKAIGKDAIYQAGARGWLWIKLKRDYQSEMADTVDLVVVGGFYGKGKRGGKISSLLMAAYNPKTDSFESVCKVASGFSDEQLDELQKKLMEIKRDVKHPRVNSKMEPDIWVEPVYVAEIIGSEITISPLHTCCQDVVEKDAGLSIRFPRFIRWRDDKSPEDATTTDEILEMYNKQPKKKIESPAVDESV | –
– | binds | Lig 145 R-D mutant (enzyme, S. solfataricus) MEFKVIAEYFDKLEKISSRLQLTALLADLLSKSDKTIIDKVVYIIQGKLWPDFLGYPELGIGEKFLIKAISIATNTDENSVENLYKTIGDLGEVARRLKSKQQSTGILGFLGTTSKESLTVDEVYSTLSKVALTTGEGSRDLKIDLLAGLLKKADPLEAKFLVRFVEGRLRVGIGDATVLDAMAIAFGGGQSASEIIERAYNLRADLGNIAKIIVEKGIEALKTLKPQVGIPIRPMLAERLSNPEEILKKMGGNAIVDYKYDGERAQIHKKEDKIFIFSRRLENITSQYPDVVDYVSKYIEGKEFIIEGEIVAIDPESGEMRPFQELMHRKRKSDIYEAIKEYPVNVFLFDLMYYEDVDYTTKPLEARRKLLESIVKPNDYVKIAHHIQANNVEDLKSFFYRAISEGGEGVMVKAIGKDAIYQAGARGWLWIKLKRDYQSEMADTVDLVVVGGFYGKGKRGGKISSLLMAAYNPKTDSFESVCKVASGFSDEQLDELQKKLMEIKRDVKHPRVNSKMEPDIWVEPVYVAEIIGSEITISPLHTCCQDVVEKDAGLSIRFPRFIRWRDDKSPEDATTTDEILEMYNKQPKKKIESPAVDESV | –
– | binds | Lig 145 R-L mutant (enzyme, S. solfataricus) MEFKVIAEYFDKLEKISSRLQLTALLADLLSKSDKTIIDKVVYIIQGKLWPDFLGYPELGIGEKFLIKAISIATNTDENSVENLYKTIGDLGEVARRLKSKQQSTGILGFLGTTSKESLTVDEVYSTLSKVALTTGEGSRDLKILLLAGLLKKADPLEAKFLVRFVEGRLRVGIGDATVLDAMAIAFGGGQSASEIIERAYNLRADLGNIAKIIVEKGIEALKTLKPQVGIPIRPMLAERLSNPEEILKKMGGNAIVDYKYDGERAQIHKKEDKIFIFSRRLENITSQYPDVVDYVSKYIEGKEFIIEGEIVAIDPESGEMRPFQELMHRKRKSDIYEAIKEYPVNVFLFDLMYYEDVDYTTKPLEARRKLLESIVKPNDYVKIAHHIQANNVEDLKSFFYRAISEGGEGVMVKAIGKDAIYQAGARGWLWIKLKRDYQSEMADTVDLVVVGGFYGKGKRGGKISSLLMAAYNPKTDSFESVCKVASGFSDEQLDELQKKLMEIKRDVKHPRVNSKMEPDIWVEPVYVAEIIGSEITISPLHTCCQDVVEKDAGLSIRFPRFIRWRDDKSPEDATTTDEILEMYNKQPKKKIESPAVDESV | –
binds | – | Lig 338 E-C mutant (enzyme, S. solfataricus) MEFKVIAEYFDKLEKISSRLQLTALLADLLSKSDKTIIDKVVYIIQGKLWPDFLGYPELGIGEKFLIKAISIATNTDENSVENLYKTIGDLGEVARRLKSKQQSTGILGFLGTTSKESLTVDEVYSTLSKVALTTGEGSRDLKIRLLAGLLKKADPLEAKFLVRFVEGRLRVGIGDATVLDAMAIAFGGGQSASEIIERAYNLRADLGNIAKIIVEKGIEALKTLKPQVGIPIRPMLAERLSNPEEILKKMGGNAIVDYKYDGERAQIHKKEDKIFIFSRRLENITSQYPDVVDYVSKYIEGKEFIIEGEIVAIDPESGEMRPFQELMHRKRKSDIYCAIKEYPVNVFLFDLMYYEDVDYTTKPLEARRKLLESIVKPNDYVKIAHHIQANNVEDLKSFFYRAISEGGEGVMVKAIGKDAIYQAGARGWLWIKLKRDYQSEMADTVDLVVVGGFYGKGKRGGKISSLLMAAYNPKTDSFESVCKVASGFSDEQLDELQKKLMEIKRDVKHPRVNSKMEPDIWVEPVYVAEIIGSEITISPLHTCCQDVVEKDAGLSIRFPRFIRWRDDKSPEDATTTDEILEMYNKQPKKKIESPAVDESV | –
